Results taken from publication PMC10785194.

B1: androgen receptor (AR): OSMI-1 (protein)
parent chain: MEVQLGLGRVYPRPPSKTYRGAFQNLFQSVREVIQNPGPRHPEAASAAPPGASLLLLQQQQQQQQQQQQQQQQQQQQQQQETSPRQQQQQQGEDGSPQAHRRGPTGYLVLDEEQQPSQPQSALECHPERGCVPEPGAAVAASKGLPQQLPAPPDEDDSAAPSTLSLLGPTFPGLSSCSADLKDILSEASTMQLLQQQQQEAVSEGSSSGRAREASGAPTSSKDNYLGGTSTISDNAKELCKAVSVSMGLGVEALEHLSPGEQLRGDCMYAPLLGVPPAVRPTPCAPLAECKGSLLDDSAGKSTEDTAEYSPFKGGYTKGLEGESLGCSGSAAAGSSGTLELPSTLSLYKSGALDEAAAYQSRDYYNFPLALAGPPPPPPPPHPHARIKLENPLDYGSAWAAAAAQCRYGDLASLHGAGAAGPGSGSPSAAASSSWHTLFTAEEGQLYGPCGGGGGGGGGGGGGGGGGGGGGGGEAGAVAPYGYTRPPQGLAGQESDFTAPDVWYPGGMVSRVPYPSPTCVKSEMGPWMDSYSGPYGDMRLETARDHVLPIDYYFPPQKTCLICGDEASGCHYGALTCGSCKVFFKRAAEGKQKYLCASRNDCTIDKFRRKNCPSCRLRKCYEAGMTLGARKLKKLGNLKLQEEGEASSTTSPTEETTQKLTVSHIEGYECQPIFLNVLEAIEPGVVCAGHDNNQPDSFAALLSSLNELGERQLVHVVKWAKALPGFRNLHVDDQMAVIQYSWMGLMVFAMGWRSFTNVNSRMLYFAPDLVFNEYRMHKSRMYSQCVRMRHLSQEFGWLQITPQEFLCMKALLLFSIIPVDGLKNQKFFDELRMNYIKELDRIIACKRKNPTSCSRRFYQLTKLLDSVQPIARELHQFTFDLLIKSHMVSVDFPEMMAEIISVQVPKILSGKVKPIYFHTQ
B2: androgen receptor (AR): Thiamet G (protein)
parent chain: B1 parent chain

What was measured:
Details in all cases: control: untreated
[1] = immunofluorescence, nuclear AR, C4-2B
immunoblot, C4-2B = test: immunoblot, C4-2B
[2] = CHX chase, AR protein stability by immunoblot

Row | Protein | localisation_or_trafficking ([1]; glycan lost) | other: AR S81 phosphorylation (immunoblot, C4-2B; glycan lost) | degradation_or_half_life ([2]; glycan lost) | localisation_or_trafficking ([1]; glycan gained) | other: AR S81 phosphorylation (immunoblot, C4-2B; glycan gained) | degradation_or_half_life ([2]; glycan gained)
1 | B1 | increases | increases | increases | – | – | –
2 | B2 | – | – | – | decreases | decreases | decreases
